Test results: patent EP4714971A1 (Shanghai Hansoh Biomedical Co., Ltd., dated 2024)

T1: human SEZ6 expressed on stably transfected CHO-K1 cells (human, UniProt Q53EL9 20-994)
T1 construct: also called CHO-SEZ6; hSEZ6
T1 sequence: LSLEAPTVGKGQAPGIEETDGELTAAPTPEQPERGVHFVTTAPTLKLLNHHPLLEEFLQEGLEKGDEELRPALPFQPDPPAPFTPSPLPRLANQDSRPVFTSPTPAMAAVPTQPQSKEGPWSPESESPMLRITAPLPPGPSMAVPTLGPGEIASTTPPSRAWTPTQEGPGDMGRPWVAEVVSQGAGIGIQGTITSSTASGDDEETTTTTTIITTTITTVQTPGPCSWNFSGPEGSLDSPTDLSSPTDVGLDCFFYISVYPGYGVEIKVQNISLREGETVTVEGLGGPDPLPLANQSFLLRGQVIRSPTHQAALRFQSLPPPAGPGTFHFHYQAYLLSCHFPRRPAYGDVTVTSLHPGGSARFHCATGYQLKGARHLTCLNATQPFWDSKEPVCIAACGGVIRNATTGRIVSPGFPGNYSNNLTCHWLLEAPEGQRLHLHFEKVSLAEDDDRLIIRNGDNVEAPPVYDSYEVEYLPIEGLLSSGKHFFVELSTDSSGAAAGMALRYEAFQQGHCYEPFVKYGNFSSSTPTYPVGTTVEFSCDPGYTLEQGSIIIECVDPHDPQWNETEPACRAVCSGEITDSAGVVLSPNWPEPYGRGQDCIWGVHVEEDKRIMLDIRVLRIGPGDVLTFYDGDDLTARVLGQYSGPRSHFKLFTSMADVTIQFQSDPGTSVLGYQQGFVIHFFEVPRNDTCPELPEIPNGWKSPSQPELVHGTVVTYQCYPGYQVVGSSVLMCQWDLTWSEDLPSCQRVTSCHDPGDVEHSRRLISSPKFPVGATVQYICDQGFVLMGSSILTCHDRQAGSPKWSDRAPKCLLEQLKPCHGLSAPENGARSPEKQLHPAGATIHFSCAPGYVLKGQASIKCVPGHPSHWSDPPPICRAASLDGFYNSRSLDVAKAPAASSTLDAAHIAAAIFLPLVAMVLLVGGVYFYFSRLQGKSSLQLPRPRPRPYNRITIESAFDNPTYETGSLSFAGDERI

T2: Recombinant human SEZ6-His6 protein (human, UniProt Q53EL9 20-925)
T2 construct: also called His-tagged SEZ6 antigen
T2 sequence: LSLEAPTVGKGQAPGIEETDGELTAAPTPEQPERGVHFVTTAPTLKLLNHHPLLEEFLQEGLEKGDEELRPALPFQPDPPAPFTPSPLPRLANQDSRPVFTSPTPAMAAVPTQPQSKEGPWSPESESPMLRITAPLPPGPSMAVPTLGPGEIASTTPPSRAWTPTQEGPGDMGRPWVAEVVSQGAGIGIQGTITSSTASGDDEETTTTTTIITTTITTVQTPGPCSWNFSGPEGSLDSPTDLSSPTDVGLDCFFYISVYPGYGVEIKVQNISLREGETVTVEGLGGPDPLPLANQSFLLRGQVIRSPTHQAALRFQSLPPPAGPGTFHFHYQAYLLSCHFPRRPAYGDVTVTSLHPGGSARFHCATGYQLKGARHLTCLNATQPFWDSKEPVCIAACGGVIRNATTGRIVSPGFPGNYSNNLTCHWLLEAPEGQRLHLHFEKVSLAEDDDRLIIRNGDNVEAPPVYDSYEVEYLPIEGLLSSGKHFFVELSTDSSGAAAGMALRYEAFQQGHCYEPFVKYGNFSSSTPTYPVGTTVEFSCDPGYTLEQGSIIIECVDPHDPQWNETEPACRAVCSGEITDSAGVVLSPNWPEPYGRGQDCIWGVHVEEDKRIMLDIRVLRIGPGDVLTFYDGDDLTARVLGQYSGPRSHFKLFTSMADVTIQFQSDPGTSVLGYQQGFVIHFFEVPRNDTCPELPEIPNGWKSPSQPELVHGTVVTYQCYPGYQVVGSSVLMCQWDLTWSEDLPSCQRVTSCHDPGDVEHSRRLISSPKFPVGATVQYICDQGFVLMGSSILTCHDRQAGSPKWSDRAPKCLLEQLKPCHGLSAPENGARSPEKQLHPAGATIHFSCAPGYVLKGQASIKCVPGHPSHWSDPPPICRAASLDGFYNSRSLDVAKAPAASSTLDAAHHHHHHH

T3: Recombinant monkey SEZ6-His6 protein (cynomolgus monkey, UniProt Q53EL9 20-925 (human entry))
T3 construct: also called Cynomolgus monkey SEZ6-His6
T3 chain: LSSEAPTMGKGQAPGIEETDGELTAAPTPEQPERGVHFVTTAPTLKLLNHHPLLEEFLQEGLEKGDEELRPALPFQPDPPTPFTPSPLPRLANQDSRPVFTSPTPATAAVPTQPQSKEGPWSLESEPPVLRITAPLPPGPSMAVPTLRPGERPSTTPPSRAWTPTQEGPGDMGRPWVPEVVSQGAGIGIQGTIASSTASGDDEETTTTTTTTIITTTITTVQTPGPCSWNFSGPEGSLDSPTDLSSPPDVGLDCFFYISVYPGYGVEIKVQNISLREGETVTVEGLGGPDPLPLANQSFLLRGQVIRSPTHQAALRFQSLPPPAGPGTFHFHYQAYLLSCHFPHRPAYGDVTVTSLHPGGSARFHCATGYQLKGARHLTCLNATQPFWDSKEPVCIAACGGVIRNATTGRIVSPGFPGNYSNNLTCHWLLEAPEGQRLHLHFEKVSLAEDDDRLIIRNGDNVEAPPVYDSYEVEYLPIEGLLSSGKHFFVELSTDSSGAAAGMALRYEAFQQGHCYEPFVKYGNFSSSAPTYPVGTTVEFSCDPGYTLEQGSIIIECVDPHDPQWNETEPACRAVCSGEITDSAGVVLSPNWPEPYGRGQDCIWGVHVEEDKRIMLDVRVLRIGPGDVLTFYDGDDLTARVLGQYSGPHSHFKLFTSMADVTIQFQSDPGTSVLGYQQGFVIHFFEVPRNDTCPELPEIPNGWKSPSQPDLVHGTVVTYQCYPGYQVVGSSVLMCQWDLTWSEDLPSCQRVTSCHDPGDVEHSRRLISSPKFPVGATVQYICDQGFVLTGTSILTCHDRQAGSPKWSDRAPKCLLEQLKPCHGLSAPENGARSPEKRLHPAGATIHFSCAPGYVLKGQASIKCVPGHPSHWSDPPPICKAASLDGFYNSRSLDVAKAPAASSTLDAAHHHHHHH

B1: hSC200 (hSC17.200) (antibody, human IgG1, kappa, V domains shown)
VH: EVQLVQSGAEVKKPGESLKISCKGSGYSFTSSWINWVRQMPGKGLEWMGRIYPGEGDTNYNGNFEGQVTISADKSISTAYLQWSSLKASDTAMYYCTRGLVMDYWGQGTLVTVSS
VL: EIVLTQSPATLSLSPGERATLSCRASQSVDYNGISYMHWYQQKPGQAPRLLIYAASNVQSGIPARFSGSGSGTDFTLTISSLEPEDFAVYYCQQSIEDPPTFGGGTKVEIKR
notes: also called control molecule; control antibody
B2: PR3178 (antibody, human IgG1, kappa, V domains shown)
VH: QVQLVQSGAEVKKPGASVKVSCKASGYTFTDYEMHWVRQAPGQGLEWMGGIDPESDNTVYNQKFKGRVTLTEDTSTSTAYMELRSLRSEDTAVYYCTRGDWYFDVWGQGTTVTVSS
VL: DIVMTQSPDSLAVSLGERATINCKSSQSLLNSRTRENYLAWYQQKPGQPPKLLIYWASTRESGVPDRFSGSGSGTDFTLTISSLQAEDVAVYYCGQSYNLFTFGQGTKLEIKR
notes: Humanized, human IgG1, kappa; also called humanized antibody of cAb3009

Key:
[1] = target: T1, human SEZ6 expressed on stably …; assay: flow cytometry on CHO-K1 cells expressing human SEZ6
[2] = target: T2, Recombinant human SEZ6-His6 protein; assay: SPR (BIAcore 8K), antibody captured on protein A chip, SEZ6-His6 as analyte, 1:1 Langmuir model
[3] = target: T3, Recombinant monkey SEZ6-His6 protein; assay: as above

Binder	EC50 [1] [nM]	MFImax [1]	Kd [2] [nM]	koff [2] [s⁻¹]	kon [2] [M⁻¹ s⁻¹]	Kd [3] [nM]	koff [3] [s⁻¹]	kon [3] [M⁻¹ s⁻¹]
B1	0.26	1160	59.9	0.00468	78200	57.9	0.00475	82000
B2	0.05	1300	1.61	0.00064	396000	1.55	0.000616	398000
